The text below walks through data of patent US20130144035A1, “COMPOSITIONS AND METHODS FOR LEUKOCYTE-TARGETING MULTI-VALENT IMAGING PROBES” (priority 2010, published 2013).

Like-named read-outs stand apart in the source and are kept apart here. Square brackets hold non-standard residues; d marks the D form. Peptide text beside a SMILES is read from it. * marks the point of attachment. PEG12 = NCCOCCOCCOCCOCCOCCOCCOCCOCCOCCOCCOCCOCCC(=O)O; PEG4 = NCCOCCOCCOCCOCCC(=O)O; HYNIC = NNc1ccc(C(=O)*)cn1; X1 = O=C(/C=C/c1ccccc1)*

Data set [1] deals with isolated human neutrophils (formyl peptide and tuftsin receptors). The data set can be described thus: Neutrophil binding, saturation assay. As to conditions: for Kd: TNF-α treated human neutrophils, 25° C., 90 min, saturation assay. As for the experimental part: Human tumor necrosis factor-α (TNF-α) was procured from Perpotech, and fMLF was purchased from Sigma. Aliquots of both samples were taken (TNF-α, 10 U/mL, and fMLF, 10 mM) and stored at −20° C. For every assay the solutions were thawed to ambient temperature and freshly diluted with […] (HA) buffer before use. Multiscreen high-throughput screening (HTS) with glass fiber filter (FC) 96-well plates, type C, with […] glass filters were purchased from Millipore. Filtration from 96-well plates was performed under vacuum on a Brandel filtration device. The membranes from each well were collected by punching with the Millipore Multiscreen punching instrument. The radioactivity from ^99mTc-bound ligand was measured with either Minaxi (Packard), Autogamma 5000 series (Packard), or Wallac 1420 Wizard (Perkin-Elmer) γ-counters. Radioactivity was measured for 1 min per sample and was not corrected for decay.
Human neutrophils were prepared from normal heparinized (10 U/mL) venous blood by a 1-step Ficoll-Hypaque separation procedure (15, 16), yielding approximately 98% neutrophils; greater than 95% viable as determined with trypan blue containing less than 50 pg/mL of endotoxin. After separation, neutrophils were washed with Hank's balanced salt solution with heparin (10 U/mL) 3 times. After the third wash, neutrophils were resuspended in HA buffer, which was Hank's balanced salt solution supplemented with 0.1% human albumin (Bayer Healthcare). Neutrophil experiments were completed in HA buffer.
Freshly isolated human neutrophils (4×10^6 cells/mL) were treated with TNF-α(10 U/mL, Peprotech) twenty minutes prior to binding studies and transferred to a 96 well plate (Multiscreen® HTS FC by Millipore, Billerica, Mass. 1.2 μm glass filter type C, 50.0 μL, 2.0×10^5 cells/well). […] The bounded radioactivity remaining on the membranes was measured in a gamma counter. Specific binding was calculated as the difference between total binding and nonspecific binding at the highest concentration. […]

The nature of data set [2]: Partition coefficient (octanol/water). Type of data set: physicochemical. To be noted: average of three measurements. As for the experimental part: Freshly HPLC purified cFLFLF-PEGn-KTKPPR-^99mTc 8 or 9 (˜350 kBq) in 500 μL of water was mixed with 500 μLof octanol in an Eppendorf microcentrifuge tube. The tube was sonicated for […] and then centrifuged at 4,000 rpm for […] (Fisher Scientific Marathon Micro-A). Aliquots (100 μL) of octanol and aqueous layers were carefully separated and radioactivity of samples were counted. Log P is derived as the log of the ratio of radioactivity in octonol to radioactivity in water. The measurement was repeated in triplicate and data presented is the average of three measurements.

For data set [3] the following is noted: mouse, in vivo; cited from earlier work.
For data set [4] the following is noted: mouse, in vivo; cited from earlier work. This is another data set of the same source.
Data set [5] has as its system PMA-induced ear inflammation (neutrophil accumulation). The data set can be described thus: SPECT/CT imaging in mouse ear inflammation model (PMA). In kind it is in vivo. As to conditions: 27 hours after PMA challenge, 3 hours post injection. As for the experimental part:
A female FVB mouse, 5 month old, with left ear inflammatory lesion was used to preliminarily assess the ability of the cFLFLF-PEG12-TKPPR-^99mTc to detect inflammation as a result of neutrophils migration and accumulation. The animal model is similar to that described by Gross et al. (19). Topical application of PMA (2.5 μg in 20 μl DMSO) onto the left earlobe induces acute dermatitis, manifested by local swelling, erythema and infiltration of neutrophils (20, 21). The right ear served as control and received only DMSO (vehicle). The SPECT/CT imaging was correlated with myeloperoxidase (MPO) activity determined by non-invasive bioluminal-bioluminescence imaging (19).
Twenty-four hours after PMA challenge, 3.7 MBq […] of cFLFLF-PEG12-TKPPR-^99mTc in 200 μl of saline was administered via tail vein. […] All SPECT images were corrected for radioactivity decay but not for gamma ray attenuation.
Co-registration of SPECT and CT images was performed using ASIPRO software (Siemens Medical Solutions USA, Inc., Knoxyille, Tenn.) and a transformation matrix previously obtained with a dual modality phantom. To characterize the accumulation of the tracer in the ears, volume-of-interest (VOI) analysis was performed to identify the number of detected counts originating in the ears. […] This activity was expressed as percentage of the injected dose per mouse body mass (% ID/g).

The nature of another data set: Blood clearance. Type of data set: in vivo. As to conditions: mouse, whole blood, intravenous, control mice (n=3), tail vein injection, mono-exponential clearance; read-out: elimination half-life for blood clearance (T1/2). As for the experimental part: Blood kinetics of cFLFLF-PEG12-TKPPR-^99mTc was studied in 3 control (non-inflamed) mice. Approximately 50 μL of blood from the contralateral tail vein were collected in capillary tubes at 15, 30, 45, 60, 120, and 180, 360 min after tracer injection (0.37-0.74 MBq). The capillary tubes were placed in a vial that was weighed beforehand and afterward. Activity in each blood sample was measured in a radioisotope calibrated well counter (CRC-15W, Capintec, Inc, NJ), decay corrected back to the time of tracer injection, normalized for injected dose and animal body weight, and expressed as % ID/g of blood.

The nature of a further data set: Serum stability. Type of data set: in vitro ADME. To be noted: fetal bovine serum. As for the experimental part:
Fifty microcuries of the cFLFLF-PEG12-TKPPR-^99mTc was added in to 100 μL of fetal bovine serum (Invitrogen, Grand Island, N.Y.). After incubation at 37° C. for 1, 3, and 6 hrs, aliquots of the mixture was filtered through a […] micro spin filter. The filtrates were analyzed by reverse-phase HPLC with a Bioscan Flow Count Radio-HPLC detector. All of newly formed γ-peaks besides the original cFLFLF-PEG12-TKPPR-^99mTc peak would be considered as degraded products.

The next data set can be described thus: Biodistribution. In kind it is in vivo. To be noted: normal mice, 18 hours post injection. As for the experimental part:
Body distribution of radioactivity was determined in control (n=3) mice 18 h after injection of tracer. After a single blood sample had been taken from the tail vein, mice were euthanized by deep halothane anesthesia. The organs and tissues (ear, heart, lungs, muscle, bone, liver, kidney, spleen, small intestine, and stomach) were collected, rinsed with PBS, wiped with filter paper and weighed in a pre-weighed vial. The radioactivity of each sample was measured in a γ-well counter and decay-corrected back to the time of tracer injection. Biodistribution values are expressed as a percentage of the injected dose (% ID) and normalized by body and organ/tissue mass.

Molecule `CC(C)C[C@@H](NC(=O)[C@H](Cc1ccccc1)NC(=O)[C@@H](CC(C)C)NC(=O)[C@H](Cc1ccccc1)NC(=O)/C=C/c1ccccc1)C(=O)N[C@@H](Cc1ccccc1)C(=O)NCCOCCOCCOCCOCCC(=O)N[C@@H](CCCCNC(=O)c1ccc(NN)nc1)C(=O)N[C@H](C(=O)N[C@@H](CCCCN)C(=O)N1CCC[C@H]1C(=O)N1CCC[C@H]1C(=O)N[C@@H](CCCNC(=N)N)C(=O)O)[C@@H](C)O` [ligand 8, cFLFLF-PEG4-TKPPR-^99mTc, metal not drawn] (X1-F[dL]F[dL]F[PEG4]K(HYNIC)TKPPR-OH) came in with an equilibrium dissociation constant (Kd) in data set [1] of 47.8 nM. Also, in data set [1] (binding to human neutrophils, ratio of Kd), the “fold less potent than compound 9” value is “roughly 3 fold”. The molecule also had a logP in data set [2] of -0.77.
For cFLFLFK-PEG-^64Cu, in data set [3], the blood retaining is reported as 0.2 % ID and the liver uptake was 1.5 % ID. Moreover, in data set [4], the “circulation time (T1/2)” value was 55 min.
Regarding `CC(C)C[C@@H](NC(=O)[C@H](Cc1ccccc1)NC(=O)[C@@H](CC(C)C)NC(=O)[C@H](Cc1ccccc1)NC(=O)/C=C/c1ccccc1)C(=O)N[C@@H](Cc1ccccc1)C(=O)NCCOCCOCCOCCOCCOCCOCCOCCOCCOCCOCCOCCOCCC(=O)N[C@@H](CCCCNC(=O)c1ccc(NN)nc1)C(=O)N[C@H](C(=O)N[C@@H](CCCCN)C(=O)N1CCC[C@H]1C(=O)N1CCC[C@H]1C(=O)N[C@@H](CCCNC(=N)N)C(=O)O)[C@@H](C)O` [ligand 9, cFLFLF-PEG12-TKPPR-^99mTc, metal not drawn] (X1-F[dL]F[dL]F[PEG12]K(HYNIC)TKPPR-OH), the “accumulation of the tracer in the infected ear (left) vs. control ear” value in data set [5] is “about 3.15 folds”. Binding in data set [1] was characterised by a dissociation constant (Kd) of 15.1 nM. Besides, the half-life in the data set “Blood clearance” was roughly 84 min. In the data set “Serum stability” (37° C.), the stable in serum result is listed as “at least 6 hours”. Moreover, the “fragments of 99mTc labeled peptide by HPLC analysis of serum samples” value in “Serum stability” (37° C., 1, 3, and 6 hours) is “no appreciable fragments”. In data set [2], this molecule came in with a logP of -0.89. In the data set “Biodistribution”, this molecule registered a blood retaining of 1.2 % ID and a liver uptake of 5.3 % ID.
